US20120148571A1 (Ablynx, published 2012)

Biological target: T1, human serum albumin (human, UniProt P02768 25-609)
T1 construct: also called HSA; humans serum albumin
Experiment: SPR (Biacore), human serum albumin immobilized on CM5 chip, periplasmic Nanobody preparation injected in running buffer of pH 5, pH 6, pH 7 or HBS-EP+
Experimental: Human serum albumin is immobilized on a CM5 sensor chip surface via amine coupling using NHS/EDC for activation and ethanolamine for deactivation (Biacore amine coupling kit)
Approximately 1000 RU of cynomolgus and humans serum albumin respectively is immobilized. Experiments are performed at 25° C. […] This mixture is brought to pH7, pH6 and pH5 by adding HCl or NaOH (dependent on the pH of the mixture measured). Standard buffer HBS-EP+Periplasmic extracts or purified Nanobodies are diluted in running buffers of pH7, pH6 and pH5. The samples are injected for 1 min at a flow rate of 45 ul/min over the activated and reference surfaces. Those surfaces are regenerated with a 3 s pulse of glycine-HCl pH1.5+0.1% P20. Evaluation is done using Biacore T100 evaluation software.

binding result: binds
B1: Nanobody 4A1 (VHH)
VHH: EVQLVESGGGLVQPEGSLRLSCRASGSIFSINTMGWYRQPPGKEREFVARIYPGITHYADSVKGRFTISRDNAKNTVYLQMNSLKPEDTAVYYCFYYYDDRNYWGEGTLVTVSS
notes: Injected as a periplasmic preparation of soluble Nanobody
